Tests used:
[1] = target: human CLL-1 on cells (human) (UniProt Q5QGZ9); experiment: FACS (PE-anti-human IgG), HL-60 cells
[2] = target: human CLL-1 on cells (human) (UniProt Q5QGZ9); experiment: FACS (PE-anti-human IgG), U937 cells
[3] = target: human CLL-1 on cells (human) (UniProt Q5QGZ9); experiment: cell-based or functional assay

human CLL-1 on cells (human), sequence (Q5QGZ9 whole entry): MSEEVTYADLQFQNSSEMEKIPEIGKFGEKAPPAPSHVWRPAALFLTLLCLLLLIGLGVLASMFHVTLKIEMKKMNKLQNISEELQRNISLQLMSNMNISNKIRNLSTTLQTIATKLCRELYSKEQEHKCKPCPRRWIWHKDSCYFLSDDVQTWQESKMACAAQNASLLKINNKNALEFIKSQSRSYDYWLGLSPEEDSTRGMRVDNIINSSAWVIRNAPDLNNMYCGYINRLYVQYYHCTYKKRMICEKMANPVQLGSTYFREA

An EC50 [1] of 35.1 nM, an EC50 [2] of 4.53 nM and a CD25 on CD4 T cells, HL60 targets, EC50 [3] of 7.12 nM were found for MCLA-117 (bispecific antibody) in this work. It also gave a CD25 on CD4 T cells, U937 targets, EC50 [3] of 2.53 nM, a CD25 on CD8 T cells, HL60 targets, EC50 [3] of 7.68 nM and a CD25 on CD8 T cells, U937 targets, EC50 [3] of 2.88 nM. The CD69 on CD4 T cells, HL60 targets, EC50 [3] was 2.33 nM, the CD69 on CD4 T cells, U937 targets, EC50 [3] was 1.19 nM and the CD69 on CD8 T cells, HL60 targets, EC50 [3] was 2.89 nM. For the same substance, the CD69 on CD8 T cells, U937 targets, EC50 [3] was 0.713 nM and the U937 cell lysis, EC50 [3] was 0.128 nM.
